Assay [1] has as its target T1, recombinant human PCSK9-His protein (Immunogen A) (human, UniProt Q8NBP7 31-692, limits assumed, biotinylated in the ELISA assays).
T1 construct: also called hPCSK9-His; His-tagged hPCSK9; not shown: His tag
The assay is described as follows: ELISA of PCSK9 binding to LDLR ECD; antibody 200 nM. Background: In an ELISA, binding on a coated surface is turned into a signal by an enzyme label.

For assay [2], the target named is T1, recombinant human PCSK9-His protein …. In words: ELISA of PCSK9 binding to LDLR ECD; antibody 0 nM.
Assay [3] has the same target. In words: ELISA of PCSK9 binding to LDLR ECD; antibody 0.01 nM.
The target of assay [4] is T2, recombinant cyno monkey PCSK9 protein (cyno monkey, UniProt A8T666 31-692 (rhesus entry), limits assumed, biotinylated in the ELISA assays).
T2 construct: also called cyno PCSK9; Cyno Monkey PCSK9-His
In words: ELISA; antibody 0.00067 nM.

Assay [5] addresses T2, recombinant cyno monkey PCSK9 protein. In words: ELISA; antibody 0.67 nM.
Assay [6] deals with T1, recombinant human PCSK9-His protein …. In words: ELISA of PCSK9 binding to LDLR ECD; antibody 0.06 nM.
The target is the same in assay [7]. The assay is described as follows: ELISA; antibody 0.0067 nM.
The target is the same in assay [8]. In words: ELISA; antibody 6.67 nM.
For assay [9], the target named is T2, recombinant cyno monkey PCSK9 protein. In words: ELISA; antibody 0 nM.
Assay [10] concerns the target T1, recombinant human PCSK9-His protein …. In words: ELISA of PCSK9 binding to LDLR ECD; antibody 0.32 nM.
Assay [11] has the same target. In words: ELISA; antibody 0.067 nM.
The target is the same in assay [12]. The assay is described as follows: ELISA of PCSK9 binding to LDLR ECD; antibody 40 nM.
Assay [13] shares this target. In words: ELISA of PCSK9 binding to LDLR ECD; antibody 1.6 nM.
Assay [14] addresses T2, recombinant cyno monkey PCSK9 protein. In words: ELISA; antibody 0.000067 nM.
The target in assay [15] is T1, recombinant human PCSK9-His protein …. The assay is described as follows: ELISA; antibody 0 nM.
For assay [16] the target is unchanged. In words: ELISA; antibody 66.67 nM.
For assay [17] the target is unchanged. The assay is described as follows: ELISA; antibody 0.00067 nM.
Assay [18] shares this target. In words: ELISA; antibody 0.000067 nM.
For assay [19] the target is unchanged. The assay is described as follows: BLI, Octet Red 96; antibody on AHC sensor.
Method: Dissociation constants were determined by Octed red 96 (Fortiebio). The detailed operation and methods were followed according to the specifications of the instrument provided by the manufacturer. Briefly, an AHC sensor (Anti-human Fc sensor, Fortiebio) was used for the affinity determination. The anti-PCSK9 antibody was diluted to 10 ug/mL in PBS buffer (pH7.4) containing 0.1% (w/w) BSA and 0.02% (v/v) Tween 20 and incubated with the AHC sensor. […] The reaction mixture was further incubated in PBS buffer (pH7.4) containing 0.1% (v/w) BSA and 0.02% (v/v) Tween 20 at 30° C. for 5 minutes.
The target in assay [20] is T2, recombinant cyno monkey PCSK9 protein. The assay is described as follows: ELISA; antibody 66.67 nM.
Assay [21] addresses T1, recombinant human PCSK9-His protein …. In words: ELISA; antibody 0.67 nM.
The target in assay [22] is T2, recombinant cyno monkey PCSK9 protein. The assay is described as follows: ELISA; antibody 6.67 nM.
Assay [23] has the same target. In words: ELISA; antibody 0.0067 nM.
The target is the same in assay [24]. The assay is described as follows: ELISA; antibody 0.067 nM.
Assay [25] deals with T1, recombinant human PCSK9-His protein …. The assay is described as follows: SPR, Biacore T200; antibody captured by anti-human Fc. For orientation: In SPR one partner is held on a chip, and binding of the other changes the refractive index at the surface.
Method: Anti-human Fc IgG was immobilized on flow cells 1 and 2: HBS-EP+(10 mM HEPES, 150 mM NaCl, 3 mM EDTA, 0.05% P20, pH 7.4) was used as running buffer, and the immobilization of anti-human Fc IgG was carried out using the immobilization wizard template. Flow cells 1 and 2 of a Series S CM5 sensor chip were activated with freshly-mixed 50 mmol/L NHS and 200 mmol/L EDC. 20 ug/mL of anti-human Fc IgG diluted in 10 mM NaAC (pH 4.5) was injected into the activated flow cells 1 and 2. The remaining active coupling sites were blocked with 1M ethanolamine.
KD measurements were carried out with HBS-EP+ as the running buffer. Each antibody was injected over the CM5 sensor flow cell 2 with a flow rate of 10 uL/min to reach response 230 RU. […] Buffer flow was maintained for 400 seconds for dissociation measurements (30 uL/min). To remove the tested antibody from the surface, 10 mM glycine-HCl pH 1.5 was injected for 20 seconds (30 ulJmin). Flow cell 1 was used as reference flow cell. […] The KD value for each antibody was evaluated using Biacore T200 evaluation software 1.0, and the data was fit with a 1:1 binding model.

T2 sequence (A8T666 31-692 limits assumed): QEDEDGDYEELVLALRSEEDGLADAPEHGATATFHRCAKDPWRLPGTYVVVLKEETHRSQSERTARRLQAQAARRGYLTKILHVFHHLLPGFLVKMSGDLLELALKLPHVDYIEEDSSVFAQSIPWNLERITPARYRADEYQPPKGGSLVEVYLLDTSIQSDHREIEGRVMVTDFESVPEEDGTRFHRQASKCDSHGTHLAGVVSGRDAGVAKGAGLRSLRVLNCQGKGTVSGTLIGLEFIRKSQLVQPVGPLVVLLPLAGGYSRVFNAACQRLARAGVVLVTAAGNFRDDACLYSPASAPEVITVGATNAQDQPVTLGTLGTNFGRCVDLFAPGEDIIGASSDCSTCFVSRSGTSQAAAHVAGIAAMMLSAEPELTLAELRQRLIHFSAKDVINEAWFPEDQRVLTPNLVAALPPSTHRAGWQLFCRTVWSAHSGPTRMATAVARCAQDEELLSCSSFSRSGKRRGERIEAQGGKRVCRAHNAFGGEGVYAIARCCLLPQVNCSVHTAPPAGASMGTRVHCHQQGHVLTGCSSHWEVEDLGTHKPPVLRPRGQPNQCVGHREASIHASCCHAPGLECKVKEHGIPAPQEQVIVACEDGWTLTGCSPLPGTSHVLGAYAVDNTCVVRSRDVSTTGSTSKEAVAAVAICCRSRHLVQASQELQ

B1: 76A1B11, fully human anti-PCSK9 antibody (antibody, human IgG1, V domains shown)
VH: QVQLVESGGGVVQPGRSLRLSCAATGFTFSIYGMHWVRQAPGKGLEWVAVIWYDGSNKYYADSVKGRFIISRDNSKNTLYLQMNSLRVEDTAVYYCVSDYFGSGNSYYYYGMDVWGQGTTVTVSS
VL: DIQMTQSPSSLSASVGDRVTITCRASQVISNYLAWYQQKPGKVPKLLIYTASTLQSGVPSRFSGSGSGADFTLTISSLQPEDVATYYCQKYNSAPYTFGQGTKLEIK
By Kd is commonly meant the concentration at which binding is half-saturated. The term koff denotes the first-order rate constant of dissociation. By kon is commonly meant the rate constant with which the complex forms. With B1, the OD450 nm in assay [1] was 1.27 OD450 nm; in [2], 2.38 OD450 nm; in assay [3], 2.26 OD450 nm; in assay [4], 0.08 OD450 nm; in assay [5], 2.91 OD450 nm; in assay [6], 2.28 OD450 nm. Besides, the OD450 nm worked out at 0.14 OD450 nm in assay [7]; 2.97 OD450 nm in assay [8]; 0.07 OD450 nm in assay [9]; 2.31 OD450 nm in [10]; 0.8 OD450 nm in [11]; 1.35 OD450 nm in assay [12]. The OD450 nm in [13] stood at 2.19 OD450 nm; in [14] it was 0.11 OD450 nm; in assay [15], 0.06 OD450 nm; in [16], 2.97 OD450 nm; in [17], 0.07 OD450 nm; in assay [18], 0.06 OD450 nm. The OD450 nm in [20] was 3 OD450 nm; in [21], 2.77 OD450 nm; in assay [22], 3 OD450 nm; in [23], 0.24 OD450 nm; in assay [24], 1.46 OD450 nm. Moreover, in assay [19], the Kd is 12.1 nM. Moreover, the koff in [19] amounted to 0.000643 s⁻¹. Moreover, the on-rate constant (kon) in [19] was found to be 53100 M⁻¹ s⁻¹.

B2: 103C11E8, fully human anti-PCSK9 antibody (antibody, human IgG1, V domains shown)
VH: QVQLQESGPGLVKPSGTLSLTCAVSGGSISSSNWWSWVRQPPGKGLEWIGEIYHSGSTNYNPSLKSRVTISVDKSKNQFSLKLSSVTAADTAVYYCARGIAVAGTDVMDAWGQGASVTVSS
VL: EIVLTQSPATLSLSPGERATLSCRASQSVSSYLVWYQQKSGQAPRLLIYGTSNRATGIPARFSGSGSGTDFTLTISSLEPEDFALYYCQQRGNWMYTFGQGTKLEIK
For the molecule B2, the values for the equilibrium dissociation constant (Kd) in assay [25] and in assay [19] were 1.42 nM and 2.17 nM, respectively.

For the origin of these results see patent US20180355059A1 (PHARMAEXPLORER, published 2018).
